The values that follow come from patent US20090111753A1, “Nogo-A Polypeptide Fragments, Variant Nogo Receptor-1 Polypeptides, and Uses Thereof” (Yale University, priority 2004, published 2009).

T1: AP-fused Amino-Nogo fragment A (a.a. 181-864) (human, UniProt Q9NQC3 181-864)
T1 construct: AP put first by the name; also called AmNg A; AP-AmNgA; not shown: alkaline phosphatase (AP), vector pcAP6
T1 sequence: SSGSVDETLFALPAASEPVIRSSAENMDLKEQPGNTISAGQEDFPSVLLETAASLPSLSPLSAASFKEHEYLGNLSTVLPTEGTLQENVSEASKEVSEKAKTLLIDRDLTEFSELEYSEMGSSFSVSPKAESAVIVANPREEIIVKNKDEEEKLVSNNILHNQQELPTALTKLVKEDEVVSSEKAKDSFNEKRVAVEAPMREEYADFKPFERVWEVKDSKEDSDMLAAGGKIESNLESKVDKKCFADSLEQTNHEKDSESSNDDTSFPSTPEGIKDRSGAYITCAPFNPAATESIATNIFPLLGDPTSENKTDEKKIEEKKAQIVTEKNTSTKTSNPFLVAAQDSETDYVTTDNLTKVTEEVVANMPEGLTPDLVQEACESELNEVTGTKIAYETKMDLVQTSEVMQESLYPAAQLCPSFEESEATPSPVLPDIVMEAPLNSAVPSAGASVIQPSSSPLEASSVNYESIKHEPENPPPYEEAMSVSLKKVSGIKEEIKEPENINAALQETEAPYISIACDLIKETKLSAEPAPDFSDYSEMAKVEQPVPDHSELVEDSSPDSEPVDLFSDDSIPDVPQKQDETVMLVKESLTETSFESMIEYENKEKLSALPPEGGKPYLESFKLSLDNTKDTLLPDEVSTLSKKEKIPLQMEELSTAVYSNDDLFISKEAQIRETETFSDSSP

T2: AP fusion protein with the B4C fragment of Amino-Nogo-A fused directly to Nogo-66 (human, UniProt Q9NQC3 1055-1120)
T2 construct: domain: Nogo-66; also called AP-B4C66; AP-B4C-66; not shown: alkaline phosphatase (AP), vector pcAP6
T2 sequence: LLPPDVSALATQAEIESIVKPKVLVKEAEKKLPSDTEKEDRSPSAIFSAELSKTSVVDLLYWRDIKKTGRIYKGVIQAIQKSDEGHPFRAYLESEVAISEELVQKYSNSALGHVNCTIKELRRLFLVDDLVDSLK

T3: AP-fused Amino-Nogo fragment B4C (a.a. 950-1018) (human, UniProt Q9NQC3 950-1018)
T3 construct: also called AmNg B4C; AP-B4C; not shown: alkaline phosphatase (AP), vector pcAP6
T3 sequence: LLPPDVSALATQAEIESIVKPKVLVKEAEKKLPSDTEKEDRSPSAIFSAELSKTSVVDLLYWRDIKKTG

T4: AP-fused Amino-Nogo fragment B4 (a.a. 877-1018) (human, UniProt Q9NQC3 877-1018)
T4 construct: also called AmNg B4; AP-B4; not shown: alkaline phosphatase (AP), vector pcAP6
T4 sequence: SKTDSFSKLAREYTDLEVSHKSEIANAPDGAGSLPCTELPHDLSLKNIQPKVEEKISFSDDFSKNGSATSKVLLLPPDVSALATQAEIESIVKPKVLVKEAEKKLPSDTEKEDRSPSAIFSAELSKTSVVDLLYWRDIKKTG

T5: human NgR2 (Homo sapiens, UniProt Q86UN3)
T5 construct: expressed in transfected cells; host or cells: COS-7
T5 sequence (Q86UN3 47-390): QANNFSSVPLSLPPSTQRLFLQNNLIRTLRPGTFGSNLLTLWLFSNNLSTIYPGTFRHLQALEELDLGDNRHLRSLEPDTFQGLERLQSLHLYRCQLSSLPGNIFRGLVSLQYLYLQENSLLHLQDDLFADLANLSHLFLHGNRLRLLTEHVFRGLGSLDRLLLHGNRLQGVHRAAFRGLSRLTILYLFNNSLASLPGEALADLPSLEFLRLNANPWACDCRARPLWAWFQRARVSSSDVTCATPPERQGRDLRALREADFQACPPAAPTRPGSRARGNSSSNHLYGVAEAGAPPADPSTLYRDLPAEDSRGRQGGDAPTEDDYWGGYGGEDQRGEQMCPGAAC

T6: mouse NgR3 (Mus musculus, UniProt Q8K0S5)
T6 construct: expressed in transfected cells; host or cells: COS-7
T6 sequence (Q8K0S5 25-424): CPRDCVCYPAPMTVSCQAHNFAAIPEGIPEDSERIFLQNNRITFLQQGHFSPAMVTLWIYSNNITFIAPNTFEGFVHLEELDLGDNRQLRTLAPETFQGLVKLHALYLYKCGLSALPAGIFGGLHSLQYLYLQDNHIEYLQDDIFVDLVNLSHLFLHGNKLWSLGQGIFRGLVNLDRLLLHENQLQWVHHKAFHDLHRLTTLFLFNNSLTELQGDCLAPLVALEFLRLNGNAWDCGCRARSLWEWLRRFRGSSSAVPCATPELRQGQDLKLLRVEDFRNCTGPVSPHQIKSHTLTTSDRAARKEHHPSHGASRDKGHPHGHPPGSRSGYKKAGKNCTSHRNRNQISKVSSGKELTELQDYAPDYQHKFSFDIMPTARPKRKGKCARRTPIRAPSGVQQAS

B1: mouse NgR3 expressed on COS-7 cells (receptor, UniProt Q8K0S5 25-424, looked up)
chain: T6 sequence (Q8K0S5 25-424)
notes: whole, on cells; tagged (anti-Myc or anti-His detection); tag not specified
B2: AP-fused Amino-Nogo fragment B (a.a. 622-1018) (ligand)
chain: SAVPSAGASVIQPSSSPLEASSVNYESIKHEPENPPPYEEAMSVSLKKVSGIKEEIKEPENINAALQETEAPYISIACDLIKETKLSAEPAPDFSDYSEMAKVEQPVPDHSELVEDSSPDSEPVDLFSDDSIPDVPQKQDETVMLVKESLTETSFESMIEYENKEKLSALPPEGGKPYLESFKLSLDNTKDTLLPDEVSTLSKKEKIPLQMEELSTAVYSNDDLFISKEAQIRETETFSDSSPIEIIDEFPTLISSKTDSFSKLAREYTDLEVSHKSEIANAPDGAGSLPCTELPHDLSLKNIQPKVEEKISFSDDFSKNGSATSKVLLLPPDVSALATQAEIESIVKPKVLVKEAEKKLPSDTEKEDRSPSAIFSAELSKTSVVDLLYWRDIKKTG
notes: also called AmNg B; AP-AmNgB; not shown: alkaline phosphatase (AP), vector pcAP6
B3: NgR expressed on COS-7 cells (species not stated) (receptor)
chain: CPGACVCYNEPKVTTSCPQQGLQAVPVGIPAASQRIFLHGNRISHVPAASFRACRNLTILWLHSNVLARIDAAAFTGLALLEQLDLSDNAQLRSVDPATFHGLGRLHTLHLDRCGLQELGPGLFRGLAALQYLYLQDNALQALPDDTFRDLGNLTHLFLHGNRISSVPERAFRGLHSLDRLLLHQNRVAHVHPHAFRDLGRLMTLYLFANNLSALPTEALAPLRALQYLRLNDNPWVCDCRARPLWAWLQKFRGSSSEVPCSLPQRLAGRDLKRLAANDLQGCAVATGPYHPIWTGRATDEEPLGLPKCCQPDAADKASVLEPGRPASAGNALKGRVPPGDSPPGNGSGPRHINDSPFGTLPGSAEPPLTAVRPEGSEPPGFPTSGPRRRPGCSRKNRTRSHCRLGQAGSGGGGTGDSEGSGALPSLTCSLTPLGLALVLWTVLGPC
B4: AP-Nogo-66: AP fusion protein of the Nogo-66 domain (protein)
chain: RIYKGVIQAIQKSDEGHPFRAYLESEVAISEELVQKYSNSALGHVNCTIKELRRLFLVDDLVDSLK
modifications: left off: large carriers
notes: AP fusion protein of the Nogo-66 domain

The target of assay [1] is T1, AP-fused Amino-Nogo fragment A (a.a. …). Kind of assay: AP fusion on COS-7 cells expressing mouse NgR3. Here is the method:
(§1) FIG. 3B. […] Conditioned media from transfected HEK293T cells containing 20 nM of indicated AP fusion protein were applied to COS-7 cells expressing mouse NgR1, human NgR2 or mouse NgR3 and bound AP was stained. Surface expression of NgR5 was detected using anti-Myc or anti-His antibodies. AP-AmNgA: AP fusion protein of Amino-Nogo fragment A. AP-AmNgB: AP fusion protein of Amino-Nogo fragment B.

The target in assay [2] is B1. As to the kind of experiment: AP fusion on COS-7 cells expressing mouse NgR3. The protocol:
as §1

Assay [3] concerns the target T2, AP fusion protein with the B4C fragment …. Kind of assay: AP fusion on NgR-expressing COS-7 cells. The source says: (§2) Several alkaline phosphatase (AP) fusion proteins containing various Nogo-A segments derived from regions between the amino terminus and the first hydrophobic segment were examined to identify the mechanism of Amino-Nogo-A action. To generate additional AP fusion proteins, human amino Nogo fragments were amplified and ligated to the pcAP6 vector digested with restriction enzymes EcoRI and XhoI as described (Fournier, A. E., et al., Nature 409:341-346 (2001)). Plasmids were then transfected into HEK293T cells and conditioned media were collected after 7 days. None of these fragments bind with high affinity to non-transfected COS-7 cells. […] This binding is saturable with a Kd indistinguishable from that for AP-Nogo-66 association with NgR (Table I). To better define the region responsible for Amino-Nogo interaction with NgR, a range of truncation mutants of Amino-Nogo were examined as AP fusion proteins.
(§3) Binding Kds for AP fused Amino-Nogo fragments were measured by applying conditioned media containing AP fusion protein to NgR expressing COS-7 cells. Bound AP was stained and measured.

In assay [4] the target is B2. Kind of assay: AP fusion on NgR-expressing COS-7 cells.
Description: as §2, §3

Assay [5] deals with T3, AP-fused Amino-Nogo fragment B4C (a.a. …). As to the kind of experiment: AP fusion on NgR-expressing COS-7 cells.
Description: as §2, §3

Assay [6] addresses T4, AP-fused Amino-Nogo fragment B4 (a.a. …). Kind of assay: AP fusion on NgR-expressing COS-7 cells.
Description: as §2, §3

For a further assay, the target named is T5, human NgR2. Conditions: expressed on the surface of COS-7 cells; Barton et al. 2003; cited from earlier work.
Another assay has as its target T6, mouse NgR3. The conditions noted are these: expressed on the surface of COS-7 cells; Barton et al. 2003; cited from earlier work.

Take B1: the binding result in assay [1] is “no binding (tested: 20 nM)”.
Turning to B2, the binding result in assay [2] is listed as “no binding (tested: 20 nM)”.
As usually defined, the Kd is the free concentration of one partner at which half of the binding sites on the other are occupied at equilibrium, for simple one-to-one binding. Read a high Kd as a looser complex. Turning to B3, the Kd in assay [3] is less than 1 nM; in assay [4], 6.66 nM; in assay [5], 3.51 nM; in assay [6], 9.01 nM.
As to B4, the “binding to NgR2” value with human NgR2 is reported as “do not bind”. In addition, in the assay with mouse NgR3, the “binding to NgR3” value is recorded as “do not bind”.
